We go through 16 molecules from patent publication US11319341B2, “Immune-stimulating soluble doxorubicin-conjugated complex” (Yafei (Shanghai) Biopharmaceutical Co., Ltd., priority 2016, dated 2022).

Residues, ends and D or L forms follow the SMILES beside them. *: point of attachment. Doxorubicin(3'-N) = COc1cccc2c1C(=O)c1c(O)c3c(c(O)c1C2=O)C[C@@](O)(C(=O)CO)C[C@@H]3O[C@H]1C[C@H](N*)[C@H](O)[C@H](C)O1; Hexanoyl(6-maleimido) = O=C1C=CC(=O)N1CCCCCC(=O)*; Butanoyl(4-maleimido) = O=C1C=CC(=O)N1CCCC(=O)*; Propanoyl(3-maleimido) = O=C1C=CC(=O)N1CCC(=O)*; PEG6 = NCCOCCOCCOCCOCCOCCOCCC(=O)O; PEG4 = NCCOCCOCCOCCOCCC(=O)O; PEG3 = NCCOCCOCCOCCC(=O)O; PEG2 = NCCOCCOCCC(=O)O A value given as a limit tells only on which side of the number the result lay.

This data set is described as follows: Water solubility of freeze-dried compounds in water (observation and HPLC).
Regarding `COc1cccc2c1C(=O)c1c(O)c3c(c(O)c1C2=O)C[C@@](O)(C(=O)CO)C[C@@H]3O[C@H]1C[C@H](NC(=O)[C@H](CC(C)C)NC(=O)[C@H](CC(N)=O)NC(=O)[C@H](C)NC(=O)[C@H](C)NC(=O)[C@H](CC(=O)O)NC(=O)CCOCCOCCOCCOCCNC(=O)CCCN2C(=O)C=CC2=O)[C@H](O)[C@H](C)O1` [QHL-078] ({Butanoyl(4-maleimido)-PEG4}-DAANL-{Doxorubicin(3'-N)}), the solubility is greater than 25000 µg/mL.

In turn, `COc1cccc2c1C(=O)c1c(O)c3c(c(O)c1C2=O)C[C@@](O)(C(=O)CO)C[C@@H]3O[C@H]1C[C@H](NC(=O)[C@H](CC(C)C)NC(=O)[C@H](CC(N)=O)NC(=O)[C@H](C)NC(=O)[C@H](C)NC(=O)[C@H](CCC(=O)O)NC(=O)CCOCCOCCOCCOCCOCCOCCNC(=O)CCCN2C(=O)C=CC2=O)[C@H](O)[C@H](C)O1` [QHL-081] ({Butanoyl(4-maleimido)-PEG6}-EAANL-{Doxorubicin(3'-N)}) yielded a solubility greater than 30000 µg/mL.

`COc1cccc2c1C(=O)c1c(O)c3c(c(O)c1C2=O)C[C@@](O)(C(=O)CO)C[C@@H]3O[C@H]1C[C@H](NC(=O)[C@H](CC(C)C)NC(=O)[C@H](CC(N)=O)NC(=O)[C@H](C)NC(=O)[C@H](C)NC(=O)[C@H](CC(=O)O)NC(=O)CCOCCOCCOCCOCCOCCOCCNC(=O)CCCN2C(=O)C=CC2=O)[C@H](O)[C@H](C)O1` [QHL-084] ({Butanoyl(4-maleimido)-PEG6}-DAANL-{Doxorubicin(3'-N)}) registered a solubility greater than 30000 µg/mL.

Consider `COc1cccc2c1C(=O)c1c(O)c3c(c(O)c1C2=O)C[C@@](O)(C(=O)CO)C[C@@H]3O[C@H]1C[C@H](NC(=O)[C@H](CC(C)C)NC(=O)[C@H](CC(N)=O)NC(=O)[C@H](C)NC(=O)[C@H](C)NC(=O)CCOCCOCCOCCNC(=O)CCN2C(=O)C=CC2=O)[C@H](O)[C@H](C)O1` [QHL-090] ({Propanoyl(3-maleimido)-PEG3}-AANL-{Doxorubicin(3'-N)}), for which the solubility is greater than 10000 µg/mL.

Consider `COc1cccc2c1C(=O)c1c(O)c3c(c(O)c1C2=O)C[C@@](O)(C(=O)CO)C[C@@H]3O[C@H]1C[C@H](NC(=O)[C@H](CC(C)C)NC(=O)[C@H](CC(N)=O)NC(=O)[C@H](C)NC(=O)[C@H](C)NC(=O)CCOCCOCCNC(=O)CCCN2C(=O)C=CC2=O)[C@H](O)[C@H](C)O1` [QHL-099] ({Butanoyl(4-maleimido)-PEG2}-AANL-{Doxorubicin(3'-N)}), for which the solubility is greater than 20000 µg/mL.

Turning to `COc1cccc2c1C(=O)c1c(O)c3c(c(O)c1C2=O)C[C@@](O)(C(=O)CO)C[C@@H]3O[C@H]1C[C@H](NC(=O)[C@H](CC(C)C)NC(=O)[C@H](CC(N)=O)NC(=O)[C@H](C)NC(=O)[C@H](C)NC(=O)CCOCCOCCOCCNC(=O)CCCN2C(=O)C=CC2=O)[C@H](O)[C@H](C)O1` [QHL-102] ({Butanoyl(4-maleimido)-PEG3}-AANL-{Doxorubicin(3'-N)}), the solubility was greater than 10000 µg/mL.

`COc1cccc2c1C(=O)c1c(O)c3c(c(O)c1C2=O)C[C@@](O)(C(=O)CO)C[C@@H]3O[C@H]1C[C@H](NC(=O)[C@H](CC(C)C)NC(=O)[C@H](CC(N)=O)NC(=O)[C@H](C)NC(=O)[C@H](C)NC(=O)CCOCCOCCOCCOCCNC(=O)CCCN2C(=O)C=CC2=O)[C@H](O)[C@H](C)O1` [QHL-105] ({Butanoyl(4-maleimido)-PEG4}-AANL-{Doxorubicin(3'-N)}) came in with a solubility greater than 10000 µg/mL.

Molecule `COc1cccc2c1C(=O)c1c(O)c3c(c(O)c1C2=O)C[C@@](O)(C(=O)CO)C[C@@H]3O[C@H]1C[C@H](NC(=O)[C@H](CC(C)C)NC(=O)[C@H](CC(N)=O)NC(=O)[C@H](C)NC(=O)[C@H](C)NC(=O)CCOCCOCCOCCOCCOCCOCCNC(=O)CCCN2C(=O)C=CC2=O)[C@H](O)[C@H](C)O1` [QHL-108] ({Butanoyl(4-maleimido)-PEG6}-AANL-{Doxorubicin(3'-N)}) had a solubility greater than 20000 µg/mL.

Regarding `COc1cccc2c1C(=O)c1c(O)c3c(c(O)c1C2=O)C[C@@](O)(C(=O)CO)C[C@@H]3O[C@H]1C[C@H](NC(=O)[C@H](CC(C)C)NC(=O)[C@H](CC(N)=O)NC(=O)[C@H](C)NC(=O)[C@H](C)NC(=O)[C@H](CCC(=O)O)NC(=O)CCN2C(=O)C=CC2=O)[C@H](O)[C@H](C)O1` [QHL-111] ({Propanoyl(3-maleimido)}-EAANL-{Doxorubicin(3'-N)}), the solubility was greater than 10000 µg/mL.

Take `COc1cccc2c1C(=O)c1c(O)c3c(c(O)c1C2=O)C[C@@](O)(C(=O)CO)C[C@@H]3O[C@H]1C[C@H](NC(=O)[C@H](CC(C)C)NC(=O)[C@H](CC(N)=O)NC(=O)[C@H](C)NC(=O)[C@H](C)NC(=O)[C@H](CC(=O)O)NC(=O)CCN2C(=O)C=CC2=O)[C@H](O)[C@H](C)O1` [QHL-114] ({Propanoyl(3-maleimido)}-DAANL-{Doxorubicin(3'-N)}): the solubility is greater than 15000 µg/mL.

In turn, `COc1cccc2c1C(=O)c1c(O)c3c(c(O)c1C2=O)C[C@@](O)(C(=O)CO)C[C@@H]3O[C@H]1C[C@H](NC(=O)[C@H](CC(C)C)NC(=O)[C@H](CC(N)=O)NC(=O)[C@H](C)NC(=O)[C@H](C)NC(=O)CNC(=O)CCCCCN2C(=O)C=CC2=O)[C@H](O)[C@H](C)O1` [QHL-121] ({Hexanoyl(6-maleimido)}-GAANL-{Doxorubicin(3'-N)}) displayed a solubility greater than 10000 µg/mL.

`COc1cccc2c1C(=O)c1c(O)c3c(c(O)c1C2=O)C[C@@](O)(C(=O)CO)C[C@@H]3O[C@H]1C[C@H](NC(=O)[C@H](CC(C)C)NC(=O)[C@H](CC(N)=O)NC(=O)[C@H](C)NC(=O)[C@H](C)NC(=O)[C@H](C)NC(=O)CCCCCN2C(=O)C=CC2=O)[C@H](O)[C@H](C)O1` [QHL-122] ({Hexanoyl(6-maleimido)}-AAANL-{Doxorubicin(3'-N)}) yielded a solubility greater than 10000 µg/mL.

In turn, `COc1cccc2c1C(=O)c1c(O)c3c(c(O)c1C2=O)C[C@@](O)(C(=O)CO)C[C@@H]3O[C@H]1C[C@H](NC(=O)[C@H](CC(C)C)NC(=O)[C@H](CC(N)=O)NC(=O)[C@H](C)NC(=O)[C@H](C)NC(=O)[C@H](CC(C)C)NC(=O)CCCCCN2C(=O)C=CC2=O)[C@H](O)[C@H](C)O1` [QHL-124] ({Hexanoyl(6-maleimido)}-LAANL-{Doxorubicin(3'-N)}) yielded a solubility greater than 5000 µg/mL.

`CC[C@H](C)[C@H](NC(=O)CCCCCN1C(=O)C=CC1=O)C(=O)N[C@@H](C)C(=O)N[C@@H](C)C(=O)N[C@@H](CC(N)=O)C(=O)N[C@@H](CC(C)C)C(=O)N[C@H]1C[C@H](O[C@H]2C[C@](O)(C(=O)CO)Cc3c(O)c4c(c(O)c32)C(=O)c2c(OC)cccc2C4=O)O[C@@H](C)[C@H]1O` [QHL-125] ({Hexanoyl(6-maleimido)}-IAANL-{Doxorubicin(3'-N)}) gave a solubility greater than 2000 µg/mL.

The molecule `COc1cccc2c1C(=O)c1c(O)c3c(c(O)c1C2=O)C[C@@](O)(C(=O)CO)C[C@@H]3O[C@H]1C[C@H](NC(=O)[C@H](CC(C)C)NC(=O)[C@H](CC(N)=O)NC(=O)[C@H](C)NC(=O)[C@H](C)NC(=O)[C@H](CCSC)NC(=O)CCCCCN2C(=O)C=CC2=O)[C@H](O)[C@H](C)O1` [QHL-126] ({Hexanoyl(6-maleimido)}-MAANL-{Doxorubicin(3'-N)}) displayed a solubility greater than 2000 µg/mL.

The molecule `COc1cccc2c1C(=O)c1c(O)c3c(c(O)c1C2=O)C[C@@](O)(C(=O)CO)C[C@@H]3O[C@H]1C[C@H](NC(=O)[C@H](CC(C)C)NC(=O)[C@H](CC(N)=O)NC(=O)[C@H](C)NC(=O)[C@H](C)NC(=O)[C@H](CO)NC(=O)CCCCCN2C(=O)C=CC2=O)[C@H](O)[C@H](C)O1` [QHL-129] ({Hexanoyl(6-maleimido)}-SAANL-{Doxorubicin(3'-N)}) yielded a solubility greater than 5000 µg/mL.

Usually solubility stands for the concentration that dissolves in the medium under given conditions. High values mean much dissolved substance, low ones little dissolved substance.
